{
  "source": "patent US11802878B2",
  "about": "“Protein sequencing method and reagents” (The Governing Council of the University of Toronto, priority 2009, dated 2023)",
  "key": {"[1]": {"tested_on": "immobilized biotinylated peptide, N-terminal amino acid W (X-SDGMFTAGSLIGK(biotin))", "assay": "Phage ELISA, binding to immobilized peptide, N-terminal W", "experimental": "(§1) Given the discovery that the specificity pocket library was functionally robust, selections against synthetic peptide ligands were carried out using this library. The specificity pocket library was selected against 20 biotinylated peptides, each with a different N-terminal residue atop a common leader sequence (X-SDGMFTAGSLIGK(biotin)) (SEQ ID NO: 4). The peptides were immobilized individually to the bottom wells of a microtiter plate. […] Consequently, ClpS mutant variants that prefer other residues in addition to the ligand ‘bait’ would bind those competing peptides in solution and simply be washed away. Only selective variants that bound to the immobilized target(s) were amplified during each subsequent round of selection.\n(§2) To evaluate the specificity and selectivity of individual clones, both wild-type ClpS and the selected variants' binding to each of the biotinylated peptides independently were tested. The same approach was also used to monitor the progress of the selections and to prioritize particular pools of phage for further investigation.\n(§3) Promising single clones were picked from the selection pools and their specificity was evaluated using the same panel of biotinylated peptides and various amounts of phage supernatant. […] Accordingly, Variant 1 represents a selective N-terminal amino acid capture probe for tryptophan useful for the sequencing methods described herein. Variant 1 also represents a useful scaffold for performing further generation and selection of variants with desirable properties for use as additional N-terminal amino acid capture probes.\n(§4) The selection and ELISA protocols are very similar. Briefly, each well of a 96-well Maxisorp plate was coated overnight at 4° C. with 100 μl of 10 μg/ml neutravidin in PBS, or 1:500 dilution of anti-FLAG antibody. […]\n(§5) For the ELISA readouts, 100 μl of pH adjusted phage supernatant or polyethylene glycol (PEG) precipitated concentrated phage was added to appropriate wells and allowed to bind for 1 hour at 4° C. […] The reaction was stopped by addition of 90 μl of 1M H3PO4 and the absorbance at A450 nm was read."}, "[2]": {"tested_on": "immobilized biotinylated peptide, N-terminal amino acid S (X-SDGMFTAGSLIGK(biotin))", "assay": "Phage ELISA, binding to immobilized peptide, N-terminal S", "experimental": "as §1, §2, §3, §4, §5"}, "[3]": {"tested_on": "immobilized biotinylated peptide, N-terminal amino acid C (X-SDGMFTAGSLIGK(biotin))", "assay": "Phage ELISA, binding to immobilized peptide, N-terminal C", "experimental": "as §1, §2, §3, §4, §5"}, "[4]": {"tested_on": "immobilized biotinylated peptide, N-terminal amino acid N (X-SDGMFTAGSLIGK(biotin))", "assay": "Phage ELISA, binding to immobilized peptide, N-terminal N", "experimental": "as §1, §2, §3, §4, §5"}, "[5]": {"tested_on": "immobilized biotinylated peptide, N-terminal amino acid D (X-SDGMFTAGSLIGK(biotin))", "assay": "Phage ELISA, binding to immobilized peptide, N-terminal D", "experimental": "as §1, §2, §3, §4, §5"}, "[6]": {"tested_on": "immobilized biotinylated peptide, N-terminal amino acid E (X-SDGMFTAGSLIGK(biotin))", "assay": "Phage ELISA, binding to immobilized peptide, N-terminal E", "experimental": "as §1, §2, §3, §4, §5"}, "Leu-peptides": {"tested_on": "Leu-peptides", "assay": "Phage binding to immobilized peptides or control peptides, ELISA (FIG. 6B)", "details": "negative controls BSA, SA, NA", "excerpt": "Selected peptide ligands during were synthesized with C-terminal biotin-lysine residues. The biotinylated peptides were immobilized on neutravidin-coated wells of a microtiter plate by passive adsorption, alongside additional control proteins.\nThe ClpS domains were N-terminally FLAG-tagged as shown in FIG. 6A so that display of the recombinant phage coat protein would be detectable (using commercial anti-FLAG antibody), even if the domains were not able to bind ligand. […] The expressed proteins also contained an ST2 secretion signal that is cleaved off and a C-terminal phage coat protein p3 (that is, fused to the C-terminus/residue 106 of E. coli ClpS) as shown in FIG. 6C.\nas §4, with “antibody. Plates were washed three times with PBS+0.50% TWEEN-20 (PT) and blocked for 1 hour at room temperature with 200 ul of PBS+0.5% BSA (PB). Plates were washed again three times with PT.” for “antibody.”\nas §5"}, "[7]": {"tested_on": "immobilized biotinylated peptide, N-terminal amino acid K (X-SDGMFTAGSLIGK(biotin))", "assay": "Phage ELISA, binding to immobilized peptide, N-terminal K", "experimental": "as §1, §2, §3, §4, §5"}, "[8]": {"tested_on": "immobilized biotinylated peptide, N-terminal amino acid L (X-SDGMFTAGSLIGK(biotin))", "assay": "Phage ELISA, binding to immobilized peptide, N-terminal L", "experimental": "as §1, §2, §3, §4, §5"}, "[9]": {"tested_on": "immobilized biotinylated peptide, N-terminal amino acid P (X-SDGMFTAGSLIGK(biotin))", "assay": "Phage ELISA, binding to immobilized peptide, N-terminal P", "experimental": "as §1, §2, §3, §4, §5"}, "[10]": {"tested_on": "immobilized biotinylated peptide, N-terminal amino acid V (X-SDGMFTAGSLIGK(biotin))", "assay": "Phage ELISA, binding to immobilized peptide, N-terminal V", "experimental": "as §1, §2, §3, §4, §5"}, "[11]": {"tested_on": "immobilized biotinylated peptide, N-terminal amino acid Q (X-SDGMFTAGSLIGK(biotin))", "assay": "Phage ELISA, binding to immobilized peptide, N-terminal Q", "experimental": "as §1, §2, §3, §4, §5"}, "[12]": {"tested_on": "immobilized biotinylated peptide, N-terminal amino acid T (X-SDGMFTAGSLIGK(biotin))", "assay": "Phage ELISA, binding to immobilized peptide, N-terminal T", "experimental": "as §1, §2, §3, §4, §5"}, "Leu-peptide": {"molecular_target": "Leu-peptide", "details": "reported value, wildtype ClpS:Leu-peptide interaction; read-out: dissociation constant (Kd); cited from earlier work"}, "[13]": {"tested_on": "immobilized biotinylated peptide, N-terminal amino acid G (X-SDGMFTAGSLIGK(biotin))", "assay": "Phage ELISA, binding to immobilized peptide, N-terminal G", "experimental": "as §1, §2, §3, §4, §5"}, "[14]": {"tested_on": "leucine, phenylalanine, tyrosine and tryptophan N-termini", "details": "Schuenemann et al. 2009; Tasaki et al. 2009; cited from earlier work"}},
  "data": [
    {"molecule": "ClpS WT: truncated wildtype E. coli ClpS polypeptide, 84 amino acids, SEQ ID NO: 1, displayed on phage (protein, listed as Escherichia coli, phage display) KPPSMYKVILVNDDYTPMEFVIDVLQKFFSYDVERATQLMLAVHYQGKAICGVFTAEVAETKVAMVNKYARENEHPLLCTLEKA", "values": [
      {"measurement": "phage ELISA binding signal", "setting": "[1]; N-terminal W, phage 10X, sub Fab", "result": 0.77},
      {"measurement": "phage ELISA binding signal", "setting": "[1]; N-terminal amino acid W, Table 1", "result": 0.77},
      {"measurement": "phage ELISA binding signal", "setting": "[2]; N-terminal S, phage 10X, sub Fab", "result": "−0.01"},
      {"measurement": "phage ELISA binding signal", "setting": "[2]; N-terminal amino acid S, Table 1", "result": "−0.01"},
      {"measurement": "phage ELISA binding signal", "setting": "[3]; N-terminal C, phage 10X, sub Fab", "result": "−0.23"},
      {"measurement": "phage ELISA binding signal", "setting": "[3]; N-terminal amino acid C, Table 1", "result": "−0.23"},
      {"measurement": "phage ELISA binding signal", "setting": "[4]; N-terminal N, phage 10X, sub Fab", "result": "−0.05"},
      {"measurement": "phage ELISA binding signal", "setting": "[4]; N-terminal amino acid N, Table 1", "result": "−0.05"},
      {"measurement": "phage ELISA binding signal", "setting": "[5]; N-terminal D, phage 10X, sub Fab", "result": "−0.29"},
      {"measurement": "phage ELISA binding signal", "setting": "[5]; N-terminal amino acid D, Table 1", "result": "−0.29"},
      {"measurement": "phage ELISA binding signal", "setting": "[6]; N-terminal E, phage 10X, sub Fab", "result": "−0.26"},
      {"measurement": "phage ELISA binding signal", "setting": "[6]; N-terminal amino acid E, Table 1", "result": "−0.26"},
      {"measurement": "binding of phage-displayed ClpS to immobilized peptides", "setting": "Leu-peptides; listed as ClpS from E. coli", "result": "binds two of the Leu-peptides specifically, without cross reactivity to any of the negative controls"},
      {"measurement": "binding of phage-displayed ClpS to immobilized peptides", "setting": "Leu-peptides; listed as ClpS from Escherichia coli", "result": "able to bind its cognate ligand (immobilized Leucine)"},
      {"measurement": "phage ELISA binding signal", "setting": "[7]; N-terminal K, phage 10X, sub Fab", "result": 0.05},
      {"measurement": "phage ELISA binding signal", "setting": "[7]; N-terminal amino acid K, Table 1", "result": 0.05},
      {"measurement": "phage ELISA binding signal", "setting": "[8]; N-terminal L, phage 10X, sub Fab", "result": 1.57},
      {"measurement": "phage ELISA binding signal", "setting": "[8]; N-terminal amino acid L, Table 1", "result": 1.57},
      {"measurement": "phage ELISA binding signal", "setting": "[9]; N-terminal P, phage 10X, sub Fab", "result": "−0.07"},
      {"measurement": "phage ELISA binding signal", "setting": "[9]; N-terminal amino acid P, Table 1", "result": "−0.07"},
      {"measurement": "phage ELISA binding signal", "setting": "[10]; N-terminal V, phage 10X, sub Fab", "result": "−0.09"},
      {"measurement": "phage ELISA binding signal", "setting": "[10]; N-terminal amino acid V, Table 1", "result": "−0.09"},
      {"measurement": "phage ELISA binding signal", "setting": "[11]; N-terminal Q, phage 10X, sub Fab", "result": "−0.18"},
      {"measurement": "phage ELISA binding signal", "setting": "[11]; N-terminal amino acid Q, Table 1", "result": "−0.18"},
      {"measurement": "phage ELISA binding signal", "setting": "[12]; N-terminal T, phage 10X, sub Fab", "result": 0.01},
      {"measurement": "phage ELISA binding signal", "setting": "[12]; N-terminal amino acid T, Table 1", "result": 0.01},
      {"measurement": "Kd", "setting": "Leu-peptide", "result": 4.8, "unit": "µM"},
      {"measurement": "phage ELISA binding signal", "setting": "[13]; N-terminal G, phage 10X, sub Fab", "result": "−0.04"},
      {"measurement": "phage ELISA binding signal", "setting": "[13]; N-terminal amino acid G, Table 1", "result": "−0.04"},
      {"measurement": "affinities", "setting": "[14]", "result": "single-digit micromolar to nanomolar"}
    ]}
  ]
}
